In one data set the target is T1, PHEX (Homo sapiens, UniProt P78562).
T1 sequence (P78562 1-749): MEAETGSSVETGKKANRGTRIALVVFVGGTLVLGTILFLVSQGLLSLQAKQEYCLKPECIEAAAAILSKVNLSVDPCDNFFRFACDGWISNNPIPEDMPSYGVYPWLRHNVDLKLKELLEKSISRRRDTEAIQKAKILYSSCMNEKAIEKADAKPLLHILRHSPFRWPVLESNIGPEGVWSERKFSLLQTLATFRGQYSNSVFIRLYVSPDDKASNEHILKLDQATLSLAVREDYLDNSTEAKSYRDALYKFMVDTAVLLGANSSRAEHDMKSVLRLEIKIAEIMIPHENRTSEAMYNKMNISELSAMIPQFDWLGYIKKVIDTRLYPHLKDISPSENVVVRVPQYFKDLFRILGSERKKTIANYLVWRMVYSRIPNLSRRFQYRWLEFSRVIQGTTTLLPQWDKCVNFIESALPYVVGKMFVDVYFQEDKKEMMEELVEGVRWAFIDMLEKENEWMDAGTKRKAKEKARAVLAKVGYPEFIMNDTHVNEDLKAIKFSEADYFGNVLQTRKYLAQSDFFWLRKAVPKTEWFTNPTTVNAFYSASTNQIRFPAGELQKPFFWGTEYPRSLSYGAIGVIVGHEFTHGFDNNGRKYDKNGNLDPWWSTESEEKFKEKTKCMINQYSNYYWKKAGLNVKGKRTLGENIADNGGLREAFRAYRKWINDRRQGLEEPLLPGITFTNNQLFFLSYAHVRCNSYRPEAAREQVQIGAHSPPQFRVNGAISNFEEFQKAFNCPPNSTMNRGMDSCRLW
The following applies: applicants previous observation (17); cited from earlier work.

Another data set has as its system NEP. Description: NEP activity with NEP-specific substrate and inhibitor. Format: biochemical. As to conditions: thiorphan 10^−6 M, 10 μM Abz-DRRL-EDDnp, 30 minutes. How it is done: (§1) FIG. 4 graphically illustrates the activity of PHEX in the presence of NEP-specific substrate and inhibitor. NEP, secPHEX and membrane-bound PHEX (mPHEX) activities were measured after 30 minutes of incubation in presence of either 10 μM Abz-DRRL-EDDnp (SEQ ID NO:8) (A) or 10 μM Abz-GFSDYK(Dnp)-OH (SEQ ID NO:3) (B). Fluorescence detection (AFU) at γem=420 nm and γex=320 nm was determined as described under the heading “Experimental Procedures” below. When present, thiorphan, a NEP-specific inhibitor, was at a concentration of 10^−6 M. Data are a compilation of three different experiments;
The human recombinant secPHEX was obtained following the procedure previously described (17, WO 00/50580). Purified secPHEX concentration was determined using the Bradford method (DC protein assay kit; Bio-Rad, Mississauga, ON, Canada). Membrane-bound recombinant human PHEX was expressed in LLC-PK1 cells (17, (WO 00/50580)) and membranes were prepared essentially as described by Guo et al. (34). Briefly, transfected cells resuspended in lysis buffer (150 mM NaCl, 20 mM Tris.HCl, pH 7.6) were disrupted by sonication. […] Insoluble material was pelleted by centrifugation at 10,000 g for 15 min and protein concentrations of the supernatant determined using the Bradford method described above. PHEX amounts were evaluated by immunoblotting as described previously (17). […]

The target in a further data set is T2, secPHEX (Homo sapiens, UniProt P78562).
T2 construct: pure soluble form of PHEX (secPHEX); made in house
T2 sequence (P78562 46-749 limits assumed): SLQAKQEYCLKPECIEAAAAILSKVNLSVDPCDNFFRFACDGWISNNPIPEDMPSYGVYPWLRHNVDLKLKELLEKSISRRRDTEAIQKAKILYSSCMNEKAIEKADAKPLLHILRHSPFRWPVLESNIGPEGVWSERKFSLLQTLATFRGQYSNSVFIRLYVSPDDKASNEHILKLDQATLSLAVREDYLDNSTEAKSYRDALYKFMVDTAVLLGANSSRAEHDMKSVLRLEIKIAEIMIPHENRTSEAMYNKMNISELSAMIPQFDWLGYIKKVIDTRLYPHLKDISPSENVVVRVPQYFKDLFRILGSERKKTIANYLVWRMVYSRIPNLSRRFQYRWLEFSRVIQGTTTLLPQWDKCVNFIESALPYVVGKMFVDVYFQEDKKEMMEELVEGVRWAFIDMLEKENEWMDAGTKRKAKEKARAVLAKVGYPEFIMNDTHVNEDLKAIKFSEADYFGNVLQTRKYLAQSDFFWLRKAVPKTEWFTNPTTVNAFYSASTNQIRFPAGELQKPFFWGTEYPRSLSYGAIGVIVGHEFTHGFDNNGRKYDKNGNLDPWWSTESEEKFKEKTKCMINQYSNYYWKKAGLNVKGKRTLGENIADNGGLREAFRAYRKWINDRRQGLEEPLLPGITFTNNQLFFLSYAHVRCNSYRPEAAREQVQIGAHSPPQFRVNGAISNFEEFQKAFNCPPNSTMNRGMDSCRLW
Kind of data set: secPHEX activity with NEP-specific substrate and inhibitor. The format is biochemical. As to conditions: thiorphan 10^−6 M, 10 μM substrate, 30 minutes. The method, then: as §1
(§2) The activities of membrane-bound PHEX and secPHEX were also compared with the NEP-specific substrate Abz-DRRL-EDDnp (SEQ ID NO:8) (46).

Data set [1] has as its target T3, membrane-bound PHEX (mPHEX) (Homo sapiens, UniProt P78562).
T3 construct: expressed in transfected cells; host or cells: LLC-PK1 (porcine kidney cells)
Description: Membrane-bound PHEX activity with NEP-specific substrate and inhibitor. The format is biochemical. The following applies: thiorphan 10^−6 M, 10 μM substrate, 30 minutes. How it is done:
as §1, §2

The target in another data set is T4, Abz-DRRL-EDDnp.
T4 chain: DRRL

In another data set the target is T5, Abz-GFSDYK(Dnp)-OH.
T5 chain: GFSDYK

Substrate in data set [2]: Nc1ccccc1C(=O)NCC(=O)N[C@@H](Cc1ccccc1)C(=O)N[C@@H](CO)C(=O)N[C@@H](CC(=O)O)C(=O)N[C@@H](Cc1ccc(O)cc1)C(=O)N[C@@H](CCCCNc1ccc([N+](=O)[O-])cc1[N+](=O)[O-])C(=O)O
Kind of data set: Hydrolysis by membrane-bound PHEX from transfected LLC-PK1 cells. The format is biochemical, human. As to conditions: other: membrane-bound PHEX, 0.01 M Bis-Tris pH 5.5, 150 mM NaCl, 37° C. How it is done:
FIG. 3 graphically illustrates hydrolysis of Abz-GFSDYK(Dnp)-OH (SEQ ID NO:3) by secPHEX and membrane-bound PHEX. Abz-GFSDYK(Dnp)-OH (SEQ ID NO:3) at a concentration of 10 μM was incubated at 37° C., in 0.01 M Bis-Tris buffer, pH 5.5 with 150 mM NaCl, containing 2,1 μg total proteins from membranes extracted from LLC-PK1 transfected with vector alone (notes as “A” on the figure), or 2,1 μg total proteins from membranes extracted from LLC-PK1 transfected with the membrane-bound form of human PHEX (noted as “□” on the figure); or 2,1 μg total proteins from membranes extracted from LLC-PK1 transfected with vector alone to which 500 ng purified secPHEX were added (noted as “o” on the figure). Fluorescence was monitored every 4 min for a period of 28 min. Amounts of secPHEX or membrane-bound PHEX (mPHEX) in the enzymatic reactions were evaluated by immunoblotting (Inset). Mock: cells transfected with vector alone;
The human recombinant secPHEX was obtained following the procedure previously described (17, WO 00/50580). Purified secPHEX concentration was determined using the Bradford method (DC protein assay kit; Bio-Rad, Mississauga, ON, Canada). […] Insoluble material was pelleted by centrifugation at 10,000 g for 15 min and protein concentrations of the supernatant determined using the Bradford method described above. PHEX amounts were evaluated by immunoblotting as described previously (17). […]

On to substance P, for which the “cleavage by PHEX” value with PHEX was “could not cleave”.

On to `O=C(O)CNC(=O)C(CS)Cc1ccccc1` (centres unmarked) [thiorphan], for which the “inhibition of NEP activity” value with NEP was “completely inhibited”. Besides, the “inhibition of cleavage of Abz-GFSDYK(Dnp)-OH” value (against secPHEX; in data set [1]) was “did not prevent cleavage” each time.

B1: membrane-bound form of human PHEX (Homo sapiens) (protein)
chain: MEAETGSSVETGKKANRGTRIALVVFVGGTLVLGTILFLVSQGLLSLQAKQEYCLKPECIEAAAAILSKVNLSVDPCDNFFRFACDGWISNNPIPEDMPSYGVYPWLRHNVDLKLKELLEKSISRRRDTEAIQKAKILYSSCMNEKAIEKADAKPLLHILRHSPFRWPVLESNIGPEGVWSERKFSLLQTLATFRGQYSNSVFIRLYVSPDDKASNEHILKLDQATLSLAVREDYLDNSTEAKSYRDALYKFMVDTAVLLGANSSRAEHDMKSVLRLEIKIAEIMIPHENRTSEAMYNKMNISELSAMIPQFDWLGYIKKVIDTRLYPHLKDISPSENVVVRVPQYFKDLFRILGSERKKTIANYLVWRMVYSRIPNLSRRFQYRWLEFSRVIQGTTTLLPQWDKCVNFIESALPYVVGKMFVDVYFQEDKKEMMEELVEGVRWAFIDMLEKENEWMDAGTKRKAKEKARAVLAKVGYPEFIMNDTHVNEDLKAIKFSEADYFGNVLQTRKYLAQSDFFWLRKAVPKTEWFTNPTTVNAFYSASTNQIRFPAGELQKPFFWGTEYPRSLSYGAIGVIVGHEFTHGFDNNGRKYDKNGNLDPWWSTESEEKFKEKTKCMINQYSNYYWKKAGLNVKGKRTLGENIADNGGLREAFRAYRKWINDRRQGLEEPLLPGITFTNNQLFFLSYAHVRCNSYRPEAAREQVQIGAHSPPQFRVNGAISNFEEFQKAFNCPPNSTMNRGMDSCRLW
notes: expressed in transfected cells; host or cells: LLC-PK1 (porcine kidney cells)
Usually Km stands for the substrate concentration at which the rate is half of its maximum. With B1, the “substrate hydrolysis (fluorescence)” value is “Neither enzyme hydrolyzed this substrate” in the data set with Abz-DRRL-EDDnp and “degradation of the substrate was observed” in the data set with Abz-GFSDYK(Dnp)-OH. The Km with Abz-GFSDYK(Dnp)-OH is 5×10^-6 M and 10×10^-6 M, for secPHEX and membrane-bound PHEX, respectively; in data set [2], 10 µM.
